Experimental findings from paper PMC4634812, “Characterization of proliferating cell nuclear antigen (PCNA) from pathogenic yeast Candida albicans and its functional analyses in S. Cerevisiae” (BMC Microbiology, 2015) are described below.

The target in data set [1] is Candida albicans PCNA G178S mutant (Candida albicans SC5314) (UniProt Q5AMN0). Briefly: cross-linking; about 20 μg protein in 20 mM HEPES pH 7.5 with glutaraldehyde, 5 min at 37 °C, then 12 % SDS-PAGE.
Data set [2] has as its target T1, Yeast DNA polymerase eta (ScPolη) (S. cerevisiae, UniProt Q04049 1-632).
T1 construct: DNA polymerase eta (Rad30) of S. cerevisiae; also called Rad30; ScRAD30; source: S. cerevisiae YRP654 (protease deficient), GAL-PGK-GST-ScRAD30 construct, purified by the same protocol as PCNA
T1 sequence (looked up): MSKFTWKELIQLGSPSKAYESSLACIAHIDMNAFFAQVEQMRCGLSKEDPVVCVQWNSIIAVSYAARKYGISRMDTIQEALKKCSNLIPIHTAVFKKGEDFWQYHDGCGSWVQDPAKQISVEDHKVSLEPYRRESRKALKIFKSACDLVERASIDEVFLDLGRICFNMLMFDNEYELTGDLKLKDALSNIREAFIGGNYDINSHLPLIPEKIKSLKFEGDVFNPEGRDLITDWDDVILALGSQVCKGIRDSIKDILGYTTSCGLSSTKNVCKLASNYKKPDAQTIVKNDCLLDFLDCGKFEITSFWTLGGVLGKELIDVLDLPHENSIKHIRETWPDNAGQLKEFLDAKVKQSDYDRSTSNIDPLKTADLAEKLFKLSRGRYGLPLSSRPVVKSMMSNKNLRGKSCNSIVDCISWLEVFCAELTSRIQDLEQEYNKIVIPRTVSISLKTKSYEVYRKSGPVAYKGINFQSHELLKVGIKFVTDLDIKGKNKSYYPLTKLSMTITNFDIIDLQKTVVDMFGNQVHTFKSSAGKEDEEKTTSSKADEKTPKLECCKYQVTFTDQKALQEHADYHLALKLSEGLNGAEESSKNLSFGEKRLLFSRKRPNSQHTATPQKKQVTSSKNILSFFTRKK
The data set can be described thus: SPR. The settings on record: both partners purified.

Data set [3] deals with the molecule itself. Briefly: native gel or EMSA; 12 % non-denaturing polyacrylamide gel, ~1 μg of each purified protein, Coomassie stain.
Data set [4] concerns the molecule itself. Briefly: cross-linking; about 20 μg protein in 20 mM HEPES pH 7.5 with glutaraldehyde, 5 min at 37 °C, then 12 % SDS-PAGE.
The target of data set [5] is T1, Yeast DNA polymerase eta (ScPolη). The data set can be described thus: SPR; Bio-Rad XPR 36; CaPCNA, ScPCNA or BSA (~350 RU) amine-coupled on a GLC chip; ScPolη injected at 25-500nM; 25 mM HEPES pH 7.5, 10 % glycerol, 200 mM sodium acetate, 8 mM magnesium acetate, 1 mM DTT, 0.005 % Tween-20, 0.2 mg/ml BSA; 20 °C; 1:1 Langmuir fit. The settings on record: both partners purified.

With “Candida albicans PCNA G178S mutant (from UniProt Q5AMN0 1-259) (natural protein)”, the stoichiometry N in data set [1] worked out at 2.

B1: Candida albicans proliferating cell nuclear antigen (CaPCNA), wild type (natural protein, Candida albicans SC5314, UniProt Q5AMN0 1-259, looked up)
chain: MLEGKFEEAALLKKVVEAIKDCVKKCNFNCSEHGITVQAVDDSRVLLVSLLIGQTSFSEYRCDRDVTLGIDLESFSKIIKSANNEDFLTLLAEDSPDQIMAILEEKQKEKISEYSLKLMDIDSEFLQIDDMEYDAVVNMPSSDFAKLVRDLKNLSESLRVVVTKDSVKFTSEGDSGSGSVILKPYTNLKNERESVTISLDDPVDLTFGLKYLNDIVKAATLSDVITIKLADKTPALFEFKMQSGGYLRFYLAPKFDDDE
notes: PCNA (POL30) of Candida albicans SC5314, orf19.4616 of the Candida Genome Database, 259 amino acids; the orf was amplified from genomic DNA with primers from the start to the stop codon; A few residues of the Prescission site and the cloning site may remain at the N-terminus after cleavage; also called orf19.4616; CaO19.12086; source: E. coli BL21-DE3, purified (glutathione beads, eluted by …)
Take B1: in data set [2], the Kd worked out at 10.6 nM and the koff was 0.000166 s⁻¹. In addition, the “stoichiometry N” value in data set [3] came out at 3. Further, the “stoichiometry N” value in data set [4] came out at 6.

B2: Saccharomyces cerevisiae PCNA (ScPCNA), wild type (natural protein, S. cerevisiae)
chain: MLEAKFEEASLFKRIIDGFKDCVQLVNFQCKEDGIIAQAVDDSRVLLVSLEIGVEAFQEYRCDHPVTLGMDLTSLSKILRCGNNTDTLTLIADNTPDSIILLFEDTKKDRIAEYSLKLMDIDADFLKIEELQYDSTLSLPSSEFSKIVRDLSQLSDSINIMITKETIKFVADGDIGSGSVIIKPFVDMEHPETSIKLEMDQPVDLTFGAKYLLDIIKGSSLSDRVGIRLSSEAPALFQFDLKSGFLQFFLAPKFNDEE
notes: PCNA (POL30) of S. cerevisiae; The cloning of the bacterial ScPCNA construct is not described; also called yeast PCNA; ScPol30; source: E. coli BL21-DE3, purified (glutathione beads, eluted by Prescission protease)
In the case of B2, the “stoichiometry N” value in data set [3] was 3. Besides, in data set [5], binding was characterised by a dissociation constant (Kd) of 80.1 nM and the koff worked out at 0.00138 s⁻¹.
